The Human Domainome abundance scans (Beltran et al. 2025)
± gives the uncertainty stated by the source.

B1: POU domain, class 3, transcription factor 1, residues 247 to 324; numbered along this chain, Q03052 (parent)
chain: EDAPSSDDLEQFAKQFKQRRIKLGFTQADVGLALGTLYGNVFSQTTICRFEALQLSFKNMCKLKPLLNKWLEETDSSS

Variants of: B1
Experiment: abundance fitness (aPCA) (normalised: wild type 0, dead -1); higher = more abundant; growth selection in yeast, the domain comes from the species named
Conditions: Homo sapiens

Variant	abundance fitness
EDAPSSDDLEQFAKQFKQRRIKLGFTQADVGLALGGLYGNVFSQTTICRFEALQLSFKNMCKLKPLLNKWLEETDSSS [T36G]	-0.166 ± 0.052
EDAPSSDDLEQFAKQFKQRRIKLGFTQADVGLALGKLYGNVFSQTTICRFEALQLSFKNMCKLKPLLNKWLEETDSSS [T36K]	0.111 ± 0.071
EDAPSSDDLEQFAKQFKQRRIKLGFTQADVGLALGMLYGNVFSQTTICRFEALQLSFKNMCKLKPLLNKWLEETDSSS [T36M]	0.02 ± 0.069
EDAPSSDDLEQFAKQFKQRRIKLGFTQADVGLALGVLYGNVFSQTTICRFEALQLSFKNMCKLKPLLNKWLEETDSSS [T36V]	-0.36 ± 0.071
EDAPSSDDLEQFAKQFKQRRIKLGFTQADVGLALGPLYGNVFSQTTICRFEALQLSFKNMCKLKPLLNKWLEETDSSS [T36P]	-0.262 ± 0.1
EDAPSSDDLEQFAKQFKQRRIKLGFTQADVGLALGRLYGNVFSQTTICRFEALQLSFKNMCKLKPLLNKWLEETDSSS [T36R]	0.089 ± 0.046
EDAPSSDDLEQFAKQFKQRRIKLGFTQADVGLALGFLYGNVFSQTTICRFEALQLSFKNMCKLKPLLNKWLEETDSSS [T36F]	-0.659 ± 0.35
EDAPSSDDLEQFAKQFKQRRIKLGFTQADVGLALGDLYGNVFSQTTICRFEALQLSFKNMCKLKPLLNKWLEETDSSS [T36D]	0.112 ± 0.092
EDAPSSDDLEQFAKQFKQRRIKLGFTQADVGLALGNLYGNVFSQTTICRFEALQLSFKNMCKLKPLLNKWLEETDSSS [T36N]	-0.025 ± 0.17
EDAPSSDDLEQFAKQFKQRRIKLGFTQADVGLALGHLYGNVFSQTTICRFEALQLSFKNMCKLKPLLNKWLEETDSSS [T36H]	-0.299 ± 0.15
EDAPSSDDLEQFAKQFKQRRIKLGFTQADVGLALGELYGNVFSQTTICRFEALQLSFKNMCKLKPLLNKWLEETDSSS [T36E]	0.158 ± 0.063
EDAPSSDDLEQFAKQFKQRRIKLGFTQADVGLALGALYGNVFSQTTICRFEALQLSFKNMCKLKPLLNKWLEETDSSS [T36A]	-0.162 ± 0.072
EDAPSSDDLEQFAKQFKQRRIKLGFTQADVGLALGQLYGNVFSQTTICRFEALQLSFKNMCKLKPLLNKWLEETDSSS [T36Q]	0.032 ± 0.075
EDAPSSDDLEQFAKQFKQRRIKLGFTQADVGLALGILYGNVFSQTTICRFEALQLSFKNMCKLKPLLNKWLEETDSSS [T36I]	-0.178 ± 0.14
EDAPSSDDLEQFAKQFKQRRIKLGFTQADVGLALGWLYGNVFSQTTICRFEALQLSFKNMCKLKPLLNKWLEETDSSS [T36W]	-0.532 ± 0.11
EDAPSSDDLEQFAKQFKQRRIKLGFTQADVGLALGCLYGNVFSQTTICRFEALQLSFKNMCKLKPLLNKWLEETDSSS [T36C]	-0.18 ± 0.11
EDAPSSDDLEQFAKQFKQRRIKLGFTQADVGLALGSLYGNVFSQTTICRFEALQLSFKNMCKLKPLLNKWLEETDSSS [T36S]	0.134 ± 0.07
EDAPSSDDLEQFAKQFKQRRIKLGFTQADVGLALGYLYGNVFSQTTICRFEALQLSFKNMCKLKPLLNKWLEETDSSS [T36Y]	-0.416 ± 0.19

Variant	abundance fitness
EDAPSSDDLEQFAKQFKQRRIKLGFTQADVGLALGLLYGNVFSQTTICRFEALQLSFKNMCKLKPLLNKWLEETDSSS [T36L]	-0.154 ± 0.063
EDAPSSDDLEQFAKQFKQRRIKLGFTQADVGLPLGTLYGNVFSQTTICRFEALQLSFKNMCKLKPLLNKWLEETDSSS [A33P]	-0.645 ± 0.2
EDAPSSDDLEQFAKQFKQRRIKLGFTQADVGLWLGTLYGNVFSQTTICRFEALQLSFKNMCKLKPLLNKWLEETDSSS [A33W]	-0.195 ± 0.068
EDAPSSDDLEQFAKQFKQRRIKLGFTQADVGLNLGTLYGNVFSQTTICRFEALQLSFKNMCKLKPLLNKWLEETDSSS [A33N]	-0.075 ± 0.18
EDAPSSDDLEQFAKQFKQRRIKLGFTQADVGLQLGTLYGNVFSQTTICRFEALQLSFKNMCKLKPLLNKWLEETDSSS [A33Q]	0.096 ± 0.081
EDAPSSDDLEQFAKQFKQRRIKLGFTQADVGLILGTLYGNVFSQTTICRFEALQLSFKNMCKLKPLLNKWLEETDSSS [A33I]	-0.317 ± 0.2
EDAPSSDDLEQFAKQFKQRRIKLGFTQADVGLTLGTLYGNVFSQTTICRFEALQLSFKNMCKLKPLLNKWLEETDSSS [A33T]	-0.405 ± 0.16
EDAPSSDDLEQFAKQFKQRRIKLGFTQADVGLKLGTLYGNVFSQTTICRFEALQLSFKNMCKLKPLLNKWLEETDSSS [A33K]	-0.067 ± 0.089
EDAPSSDDLEQFAKQFKQRRIKLGFTQADVGLYLGTLYGNVFSQTTICRFEALQLSFKNMCKLKPLLNKWLEETDSSS [A33Y]	-0.221 ± 0.17
EDAPSSDDLEQFAKQFKQRRIKLGFTQADVGLVLGTLYGNVFSQTTICRFEALQLSFKNMCKLKPLLNKWLEETDSSS [A33V]	-0.255 ± 0.08
EDAPSSDDLEQFAKQFKQRRIKLGFTQADVGLLLGTLYGNVFSQTTICRFEALQLSFKNMCKLKPLLNKWLEETDSSS [A33L]	0.003 ± 0.067
EDAPSSDDLEQFAKQFKQRRIKLGFTQADVGLDLGTLYGNVFSQTTICRFEALQLSFKNMCKLKPLLNKWLEETDSSS [A33D]	-0.504 ± 0.16
EDAPSSDDLEQFAKQFKQRRIKLGFTQADVGLHLGTLYGNVFSQTTICRFEALQLSFKNMCKLKPLLNKWLEETDSSS [A33H]	-0.332 ± 0.28
EDAPSSDDLEQFAKQFKQRRIKLGFTQADVGLFLGTLYGNVFSQTTICRFEALQLSFKNMCKLKPLLNKWLEETDSSS [A33F]	-0.105 ± 0.12
EDAPSSDDLEQFAKQFKQRRIKLGFTQADVGLELGTLYGNVFSQTTICRFEALQLSFKNMCKLKPLLNKWLEETDSSS [A33E]	0.047 ± 0.074
EDAPSSDDLEQFAKQFKQRRIKLGFTQADVGLCLGTLYGNVFSQTTICRFEALQLSFKNMCKLKPLLNKWLEETDSSS [A33C]	-0.474 ± 0.15
EDAPSSDDLEQFAKQFKQRRIKLGFTQADVGLAWGTLYGNVFSQTTICRFEALQLSFKNMCKLKPLLNKWLEETDSSS [L34W]	-0.914 ± 0.2
